Results from patent publication US20230340159A1 (published 2023).

T1: human EpCAM (human, UniProt P16422 24-265, limits assumed)
T1 sequence (looked up): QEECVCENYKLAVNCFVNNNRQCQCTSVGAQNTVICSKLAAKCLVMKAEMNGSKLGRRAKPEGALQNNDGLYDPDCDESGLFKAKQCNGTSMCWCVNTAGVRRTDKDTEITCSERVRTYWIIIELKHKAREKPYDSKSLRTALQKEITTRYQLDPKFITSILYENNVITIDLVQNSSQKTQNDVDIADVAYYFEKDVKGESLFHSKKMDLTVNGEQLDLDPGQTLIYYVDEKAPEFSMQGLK


Experiments:
cyno EpCAM [1] = target: cyno EpCAM (cyno); experiment: ratio of cyno to human binding affinity
cyno EpCAM [2] = target: cyno EpCAM (cyno); experiment: column 'Cyno binding affinity (nM)'; method not stated
human EpCAM = target: T1, human EpCAM; experiment: column 'Human binding affinity (nM)'; method not stated

| Cyno/Human cross reactivity (cyno EpCAM [1]) [ratio cyno/human] | Kd (cyno EpCAM [2]) [nM] | Kd (human EpCAM) [nM] | Binder |
| --- | --- | --- | --- |
| 12.6 | 58.8 | 4.1 | hVIB-23 (VHH, Tied by label only (hVIB-23 = h23); also called EpCAM h23; sdABD-EpCAM h23) VHH: QVQLVESGGGLVQPGGSLTLSCVISGSFSALWAMRWYRQAPGQQRELVASSRGGTTSYADSVKGRFTISRDNSKNTLYLQMNSLRPEDTAVYYCNAIDGHLAYWGQGTLVTVSS |
| 4.5 | 12.7 | 2.8 | hVIB-13 (VHH, Tied by label only (hVIB-13 = h13); also called EpCAM h13; sdABD-EpCAM h13) VHH: QVQLVESGGGLVQPGGSLTLSCAASGTGSIFSINLMGWYRQAPGKQRELVARITSGDSTVYADSVKGRFTISRDNSKNTLYLQMNSLRPEDTAVYYCNLLLRSSPGATTPYWGQGTLVTVSS |
